Drawing on US5143839A, “Assay of endopeptidases and novel purified bacterial enzyme” (Ramot Ltd., priority 1989, dated 1992), this text covers Km, kcat and kcat/Km for 2 proteins.

Substrate in data set [1]: CC(C)C[C@H](NC(=O)[C@H](C)NC(=O)[C@H](C)NC(=O)CCC(=O)O)C(=O)Nc1ccc([N+](=O)[O-])cc1
The data set is described as follows: Kinetic parameters of hydrolysis of Suc-Ala-Ala-Leu-NH-Np (Lineweaver-Burk). Particulars: other: (S) range 0.04-4.0 mM, 10 mM CaCl2, pH 7.5, 25° C., enzyme 2.2×10^-9 M. The format is biochemical, bovine. On the procedure: (§1) Neutral endopeptidase and neutral proteinase activities were assayed by the two-stage assay using the synthetic substrate Suc-Ala-Ala-Leu-NH-Np supplemented with Streptomyces griseus aminopeptidase, usually 6-7 μg/ml. Assays were performed in 0.1M NaCl-0.05M Tris.HCl, pH 7.5 at 25° C., unless otherwise stated, with or without 0.01M CaCl2. Assay volume was 1 ml or 2.5 ml when using a Varian Techtron spectrophotometer or 0.2 ml at 23° C. when performed with microplates (Munc Immuno Plate II F) using a Kinetic Microplate Reader (Molecular Devices Corp.). Activity was measured by following the increase in absorbance at 405 nm, due to the release of 4-nitroaniline, E405 =10,600M^-1 cm^-1 [14 ]. Molar concentration of thermolysin was estimated using A280 1% =17.65 [15] and molecular mass of 34,600 Da; molar concentration of bovine kidney neutral endopeptidase by protein determination and molecular mass of 90 kDa, deduced from SDS PAGE. Both endopeptidase 24.11 from bovine kidney and thermolysin cleave the Ala-Leu bond of the compound at a very fast rate (Table 3). […]
(§2) Reactions were carried out in the presence of 10 mM CaCl2 at pH 7.5, 25° C. […] Values of kcat and Km were determined by Lineweaver-Burk plots.

Substrate in data set [2]: CC(C)C[C@H](NC(=O)[C@H](C)NC(=O)[C@H](C)NC(=O)CCC(=O)O)C(=O)Nc1ccc([N+](=O)[O-])cc1
Described as above. The format is biochemical. Particulars: other: (S) range 0.4-4.0 mM, 10 mM CaCl2, pH 7.5, 25° C., enzyme 3.0×10^-10 M. The protocol: as §1, with “3). The Leu residue of the substrate interacts with the major hydrophobic specificity sites of the enzymes (S'1), whereas the two Ala residues interact with additional subsites (S1, S2), thereby contributing to catalysis and/or binding. Even the 4-nitroaniline leaving group probably interacts with the enzyme at subsite S'2. Previously reported assays of endopeptidase 24.11 usually utilized a hydrophobic Phe residue, but Leu seems preferable in reaching higher kcat values. The rapid hydrolysis of the Leu residue is also preferable for the present two-stage assay utilizing Steptomyces aminopeptidase, since this enzyme very rapidly hydrolyzes the product of the endopeptidase attack, Leu-NH-Np.” for “3).”
as §2

B1: bovine kidney neutral endopeptidase 24.11 (Bos taurus) (protein)
chain: MGRSESQMDITDINTPKPKKKQRWTPLEISLSVLVLLLTIIAVTMIALYATYDDGICKSSECIKSAARLIQNMDATVEPCTDFFKYACGGWLKRNVIPETSSRYSNFDILRDELEVVLKDVLQEPKTEDIIAVQKAKMLYRSCINETAIESRGGEPLLRLLPDIYDWPVALENWEQKYGSSWTAEKSIAQLNSKYGKKVIINFFVGTDDKNSTNHIIHIDQPQLGLPSRDYYECTAAYKEACTAYVDFMISVAKLIRQERGLPIDENQLSLEMNKVMDLEKEIANATTKSEDRNDPMLLYNKMTLAEVQNKFSLEFSGKPFSWSNFTNEIMSTVNINIPHEEEVIVYAPEYLTNLKLILAKYSARDLQNLMSWRFIMDLVSSLSRNYKESRNAFRKALYGTTSETATWRRCANYVNGNMENAVGRLYVEAAFPGDSKHVVEDLIAQIRAVFIQTLDDLTWMDAETKKKAEEKALAIKERIGYPDDIISNDDKLNKEYLELSYQEEEYFENIIQNLKFGQNRQLKKLREKVDKDEWISGAAVVNAFYSSGRNQIVFPAGILQPPFFSAQQPKSLNYGGIGMVIGHEITHGFDDNGRNFNKDGDLVDWWTQQSANNFKDLSQCMVYQYGNFSWDLANGQHLNGINTLGENIADNGGIGQAYRAYQNYVKKHGEEKLLPGLDLNHRQLFFLNFAQVWCGTYRTEYALNSIKTDVHSPGNFRIIGTLQNSPQFSEAFHCRKNSYMNPEKKCRVW
notes: Endopeptidase 24.11 from bovine kidney was purified by Triton X-100 extraction; from tissue; host or cells: bovine kidney
Usually Km stands for the concentration of substrate that gives half-maximal velocity. A word on the kcat: it is the number of substrate molecules converted per active site and unit of time at saturation. As to B1, in data set [1], the Km was determined as 150 µM and the kcat came out at 120 s⁻¹.

B2: Thermolysin (Bacillus thermoproteolyticus) (protein)
chain: ITGTSTVGVGRGVLGDQKNINTTYSTYYYLQDNTRGNGIFTYDAKYRTTLPGSLWADADNQFFASYDAPAVDAHYYAGVTYDYYKNVHNRLSYDGNNAAIRSSVHYSQGYNNAFWNGSQMVYGDGDGQTFIPLSGGIDVVAHELTHAVTDYTAGLIYQNESGAINEAISDIFGTLVEFYANKNPDWEIGEDVYTPGISGDSLRSMSDPAKYGDPDHYSKRYTGTQDNGGVHINSGIINKAAYLISQGGTHYGVSVVGIGRDKLGKIFYRALTQYLTPTSNFSQLRAAAVQSATDLYGSTSQEVASVKQAFDAVGVK
Consider B2, for which, in data set [2], the Michaelis-Menten constant (Km) was 4200 µM, the kcat worked out at 1200 s⁻¹ and the kcat/Km is given as 0.29 M^-1 s^-1 × 10^-6.
